This is an account of results in US20260000087.

This series deals with T1, alphaS1-casein, P02662.
T1 chain: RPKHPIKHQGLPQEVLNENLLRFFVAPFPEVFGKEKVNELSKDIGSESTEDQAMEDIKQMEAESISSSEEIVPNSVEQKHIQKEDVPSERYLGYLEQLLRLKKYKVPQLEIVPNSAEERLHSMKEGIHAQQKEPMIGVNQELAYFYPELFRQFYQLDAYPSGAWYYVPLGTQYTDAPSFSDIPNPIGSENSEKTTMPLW

B1: aspartic protease or coagulant or chymosin represented by SEQ ID NO: 2 (protein)
chain: GKVARESLTNYLDCQYFGKIYIGTPPQEFTVVFDTGSSDLWVPSVYCNSDACQNHHRFDPSKSSTFQNMDKSLSIQYGTGSMQGLLGYDTVTVSNIVDRHQTVGLSTQEPGDVFTYSEFDGILGLAYPSLASEYSVPVFDNMMDRHLVAQDLFSVYMSRNEQGSMLTLGAIDRSYYTGSLHWIPVTVQEYWQFTVDRVTVDGVVVACDGGCQAILDTGTSMLVGPGSDIFNIQQAIGATEGQFGEFDIDCGRLSSMPTVVFEINGKKYPLPPSAYTSQDQGFCTSGFQGDYSSQQWILGDVFIREYYSVFDRASNRVGLAKAI
Regarding B1, the Degradation of intact alphaS1-casein (% of reference A) (% of reference A) worked out at 71.

B2: aspartic protease or coagulant or chymosin represented by SEQ ID NO: 3 (protein)
chain: GEAAKVTDEPLTNYLDSQYFGKIYIGTPPQEFTVVFDTGSSNLWVPSVYCNSDACQNHHRFNPASSTTFRSTQEPLSIQYGTGSMEGVLGYDTVTVSQIVVPDQIFGLSTQEPGEIFTYSEFDGILGLGYPSLAEDQATPVFDNMMNKNLVAQDLFSVYMSRDSQGSMLILGAIDPSYYTGSLHWVPVTEQGYWQFSVDSITVNGQVVACEGGCQAILDTGTSLLVGPSYDIANIQSIIGATQGQYGEYDINCSNLSSMPTVVVHINGRQYPLPPSAYTNQDQGLCSSGFQSEGSDQLWILGDVFIREYYSVFDRGNNRVGLATAV
Protein B2 yielded a Degradation of intact alphaS1-casein (% of reference A) (% of reference A) of 204.

B3: aspartic protease represented by SEQ ID NO: 4 (protein)
chain: GEVASEPLTSYLDSQYFGKIYIGTPPQEFTVVFDTGSSDLWVPSVYCKSDACQNHQRFDPSMSSTFQNLGKPLSIQYGTGSMQGFLGYDTVTVSDIVDPQQTVGLSTQEPGDVFTYSEFDGILGLAYPSLASEYSVPVFDNMMNRHLVAQDLFSVYMDRNGQESMLTLGAIDPSYYTGSLHWVPVTLQKYWQFTVDSVTIGGVVVACDGGCQAILDTGTSMLVGPSSDILNIQMAIGATQNQYGEFDIDCGSLSSMPTVVFEINSRMYPLTPSAYTNQDQGFCTSGFQGENNSQQWILGDVFIREYYSVFDRANNRVGLAKAV
B3 gave a Degradation of intact alphaS1-casein (% of reference A) (% of reference A) of 105.

B4: camel chymosin (CHY-MAX M from Chr. Hansen A/S) (protein)
chain: GKVAREPLTSYLDSQYFGKIYIGTPPQEFTVVFDTGSSDLWVPSIYCKSNVCKNHHRFDPRKSSTFRNLGKPLSIHYGTGSMEGFLGYDTVTVSNIVDPNQTVGLSTEQPGEVFTYSEFDGILGLAYPSLASEYSVPVFDNMMDRHLVARDLFSVYMDRNGQGSMLTLGAIDPSYYTGSLHWVPVTLQQYWQFTVDSVTINGVAVACVGGCQAILDTGTSVLFGPSSDILKIQMAIGATENRYGEFDVNCGNLRSMPTVVFEINGRDYPLSPSAYTSKDQGFCTSGFQGDNNSELWILGDVFIREYYSVFDRANNRVGLAKAI
Protein B4 returned a Degradation of intact alphaS1-casein (% of reference A) (% of reference A) of 38.

B5: bovine chymosin (CHY-MAX Plus from Chr. Hansen A/S) (protein)
chain: GEVASVPLTNYLDSQYFGKIYLGTPPQEFTVLFDTGSSDFWVPSIYCKSNACKNHQRFDPRKSSTFQNLGKPLSIHYGTGSMQGILGYDTVTVSNIVDIQQTVGLSTQEPGDVFTYAEFDGILGMAYPSLASEYSIPVFDNMMNRHLVAQDLFSVYMDRNGQESMLTLGAIDPSYYTGSLHWVPVTVQQYWQFTVDSVTISGVVVACEGGCQAILDTGTSKLVGPSSDILNIQQAIGATQNQYGEFDIDCDNLSYMPTVVFEINGKMYPLTPSAYTSQDQGFCTSGFQSENHSQKWILGDVFIREYYSVFDRANNLVGLAKAI
In turn, B5 yielded a Degradation of intact alphaS1-casein (% of reference A) (% of reference A) of 100.

B6: aspartic protease or coagulant or chymosin represented by SEQ ID NO: 1 (protein)
chain: GKIAREPLTNYLDTEYFGKIQIGSPPQEFTVVFDTGSSDLWVPSVFCNSDACQNHHRFNPSKSSTFQNMNRPLSIQYGTGSMQGFLGYDTVTVSNIVVPHQTVGLSTQEPGDIFTYSEFDGILGLAYPSLASQYSVPVFDNMMKQHLVAQDLFSVYMNSQGQGSMLILGAIDPSYYVGALHWVPVTVQQYWQFTVDRITVDGVVVACDGGCQAILDTGTSLLVGPSSDILNIQTVIGATQGQYGEFDIDCGSLRSKPTVVFEINGREYPLPPTAYTNQDQGFCTSGFQGDDSQQWVLGDVFIREYYSVFDRVNNRVGLAKAI
Regarding B6, the Degradation of intact alphaS1-casein (% of reference A) (% of reference A) was found to be 135.
